Measured values taken from patent US20250298041A1 (published 2025).

Columns and labels:
purified VWF = target: T1, purified VWF (UniProt P04275 764-2813, limits assumed); assay: method not stated; monomeric recombinant VHH81; purified VWF
T1 construct: It may be a recombinant fragment

[1] = target: T2, Plasma-derived VWF (pdVWF, Alphanate) (human, UniProt P04275 764-2813); assay: method not stated; monomeric recombinant VHH81; plasma-derived VWF
T2 construct: Commercial multimeric VWF concentrate; also called plasma-purified VWF; full-length VWF

[2] = target: plasma VWF (normal pooled human plasma) (human, UniProt P04275 764-2813); assay: cell-based or functional assay
[3] = target: T3, recombinant AIM-A1 protein (human VWF residues 1238-1493) (human, multiple O-linked sialylated core 1 glycans (produced from transfected HEK293F cells)); assay: method not given; nanobody from E. coli on AIM-A1
T3 construct: Any tags are as in that entry; also called glycosylated AIM-A1; human VWF AIM-A1 protein

[4] = target: T2, Plasma-derived VWF (pdVWF, Alphanate); assay: ELISA, plate coated with 100 nM nanobody, pdVWF titrated; apparent affinity, hyperbolic fit; apparent Kd of direct binding to pdVWF
[5] = target: T3, recombinant AIM-A1 protein (human VWF …); assay: biolayer interferometry
[6] = target: T2, Plasma-derived VWF (pdVWF, Alphanate); assay: ELISA: binding of pdVWF (0.1 µg/ml) to immobilised LBD-WT induced by a titration of the nanobody; EC50 of nanobody-induced binding of pdVWF to immobilized LBD
[7] = target: T3, recombinant AIM-A1 protein (human VWF …); assay: apparent affinity, method not named; glycosylated AIM-A1 from HEK293F cells; glycosylated AIM-A1 from HEK293F cells; apparent affinity

| Kd (purified VWF) [nM] | Kd [1] [nM] | EC50 of extent of platelet aggregation as a function of nanobody concentration [2] [nM] | EC50 of platelet aggregation in stirred human platelet rich plasma [2] [nM] | Kd [3] [nM] | Kd [4] [nM] | Kd [5] [nM] | EC50 [6] [nM] | Kd [7] [nM] | Binder |
| --- | --- | --- | --- | --- | --- | --- | --- | --- | --- |
| ~20 | ~20 | – | – | – | – | – | – | – | VHH81 (VHH, Monomeric recombinant VHH81 produced in bacteria; The tags are not included here; also called PMP12A2h1; mono ISVD of caplacizumab) VHH: EVQLVESGGGLVQPGGSLRLSCAASGRITSYNPMGWFRQAPGKGRELVAAISRTGGSTYYPDSVEGRFTISRDNAKRMVYLQMNSLRAEDTAVYYCAAAGVRAEDGRVRTLPSEYTFWGQGTQVTVSS |
| – | – | ~100 | ~57 | 31 | 1.12 | 76 | 42 | ~10 | Cd1D12 (VHH, Llama nanobody produced in E. coli with a C-terminal His tag; also called 6D12) VHH: QVQLVESGGGLVQPGGSLRLSCAASGFTLDDYAIGWFRQVPGKERTFVGAINWSGTKAYYAGSVKGRSTVRRDNAKNTVYLQMNSLKPEDTAVYYCATHRGLHYGGINYSQKDEYDYWGQGTQVTVSS |

The remaining lines, values behind:

| Binder | Kd (purified VWF) [nM] | Kd [1] [nM] | EC50 of extent of platelet aggregation as a function of nanobody concentration [2] [nM] | EC50 of platelet aggregation in stirred human platelet rich plasma [2] [nM] | Kd [3] [nM] | Kd [4] [nM] | Kd [5] [nM] | EC50 [6] [nM] | Kd [7] [nM] |
| --- | --- | --- | --- | --- | --- | --- | --- | --- | --- |
| Cd1C11 (VHH, Llama nanobody produced in E. coli with a C-terminal His tag; also called 6C11) VHH: QVQLVESGGGLVQTGGSLRLSCAASGRTVSHYSVGWFRQAPGKERVFVGAINWSGDKAYYVGSVKGRSTIRRDNAKNTVYLQMNSLKPEDTAVYYCATRRGLYYEGTDYSRKDEYDYWGQGTQVTVSS | – | – | ~100 | ~100 | 13.5 | 3.68 | 29 | 215 | – |
| Cd1C4 (VHH, Llama nanobody produced in E. coli with a C-terminal His tag; also called 6C4) VHH: QVQLVESGGGLVQTGGSLTLSCAASGRAFSQYSVGWFRQAPGKERTFVAAINWSGTKAYYAGSVKGRSTISRDRAKTTVFLQMNSLKPEDTAVYYCATHRGLYYEGTNYSQKDEYDYWGQGTQVTVSS | – | – | – | ~167 | 120 | 5.4 | – | 163 | – |
